The results in this text go back to PMC2064741 (The Journal of Cell Biology, 2007).

Where two headings read alike, the source gives them in different places.

As usually defined, the Kd is a measure of binding affinity in units of concentration. In general, Ki refers to the equilibrium dissociation constant of an inhibitor or competing ligand from its target. Low values mean higher affinity, high ones lower affinity. In general, stoichiometry N refers to the number of molecules, sites or subunits per partner or assembly.

Series [1] has as its target T1, Capu-FH1FH2 (Drosophila Capu residues 467-1,058) (Drosophila, UniProt Q24120 467-1058).
T1 sequence: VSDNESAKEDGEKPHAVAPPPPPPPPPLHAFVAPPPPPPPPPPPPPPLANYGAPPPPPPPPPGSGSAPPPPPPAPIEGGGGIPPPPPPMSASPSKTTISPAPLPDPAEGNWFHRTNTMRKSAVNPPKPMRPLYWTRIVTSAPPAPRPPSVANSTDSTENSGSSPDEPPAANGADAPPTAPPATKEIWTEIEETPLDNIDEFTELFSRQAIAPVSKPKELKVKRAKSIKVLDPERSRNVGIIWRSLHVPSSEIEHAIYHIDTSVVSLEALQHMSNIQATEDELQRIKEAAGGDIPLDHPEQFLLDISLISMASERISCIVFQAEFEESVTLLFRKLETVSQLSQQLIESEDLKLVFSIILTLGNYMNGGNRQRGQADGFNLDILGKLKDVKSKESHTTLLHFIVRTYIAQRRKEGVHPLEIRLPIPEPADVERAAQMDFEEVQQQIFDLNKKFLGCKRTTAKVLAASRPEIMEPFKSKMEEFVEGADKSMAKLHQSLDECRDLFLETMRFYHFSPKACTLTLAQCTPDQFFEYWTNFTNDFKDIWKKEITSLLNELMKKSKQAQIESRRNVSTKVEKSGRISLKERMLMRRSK
The experiment in a line: other fluorescence titration.

Series [2] addresses T2, Fmn2-FH2 (formin-2 residues 1,124-1,567) ( (printed as m-Fmn2, …, UniProt Q9JL04 1135-1578)). The experiment in a line: fluorescence polarisation. In general terms: In fluorescence polarisation assays a small probe gives low polarisation when free and higher when bound to something large.
The target in series [3] is T2, Fmn2-FH2 (formin-2 residues 1,124-1,567). The experiment in a line: inhibition of formin-driven pyrene-actin assembly.
Series [4] addresses T1, Capu-FH1FH2 (Drosophila Capu residues …). The experiment in a line: fluorescence polarisation.
The target in series [5] is T3, Capu-FH2 (Drosophila Capu residues 573-1,058) (Drosophila, UniProt Q24120 573-1058).
T3 sequence: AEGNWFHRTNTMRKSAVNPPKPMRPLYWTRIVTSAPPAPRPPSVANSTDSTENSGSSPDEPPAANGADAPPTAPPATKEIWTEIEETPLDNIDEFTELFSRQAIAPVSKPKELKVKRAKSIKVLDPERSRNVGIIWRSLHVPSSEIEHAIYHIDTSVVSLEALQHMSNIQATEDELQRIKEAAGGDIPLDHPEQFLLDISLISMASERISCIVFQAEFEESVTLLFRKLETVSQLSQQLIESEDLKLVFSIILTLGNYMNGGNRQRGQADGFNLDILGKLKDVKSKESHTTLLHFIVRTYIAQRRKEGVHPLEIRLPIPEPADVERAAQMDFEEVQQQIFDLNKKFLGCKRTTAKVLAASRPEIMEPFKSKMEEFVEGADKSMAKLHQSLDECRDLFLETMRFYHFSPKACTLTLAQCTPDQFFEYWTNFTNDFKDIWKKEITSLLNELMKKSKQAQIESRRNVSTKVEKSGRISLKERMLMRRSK
The series can be described thus: inhibition of formin-driven pyrene-actin assembly.

Series [6] deals with T1, Capu-FH1FH2 (Drosophila Capu residues …). The experiment in a line: fluorescence polarisation. This is another data set of the same source.
Series [7] deals with T3, Capu-FH2 (Drosophila Capu residues …). The series can be described thus: fluorescence polarisation.
Series [8] has as its target phalloidin-stabilized actin filaments. The series can be described thus: co-sedimentation.
For series [9] the target is unchanged. The series can be described thus: co-sedimentation. The source holds these as a separate data set.
Series [10] deals with the molecule itself. The experiment in a line: AUC.
Series [11] has as its target T1, Capu-FH1FH2 (Drosophila Capu residues …). The experiment in a line: co-sedimentation.

T2 sequence (Q9JL04 1135-1578): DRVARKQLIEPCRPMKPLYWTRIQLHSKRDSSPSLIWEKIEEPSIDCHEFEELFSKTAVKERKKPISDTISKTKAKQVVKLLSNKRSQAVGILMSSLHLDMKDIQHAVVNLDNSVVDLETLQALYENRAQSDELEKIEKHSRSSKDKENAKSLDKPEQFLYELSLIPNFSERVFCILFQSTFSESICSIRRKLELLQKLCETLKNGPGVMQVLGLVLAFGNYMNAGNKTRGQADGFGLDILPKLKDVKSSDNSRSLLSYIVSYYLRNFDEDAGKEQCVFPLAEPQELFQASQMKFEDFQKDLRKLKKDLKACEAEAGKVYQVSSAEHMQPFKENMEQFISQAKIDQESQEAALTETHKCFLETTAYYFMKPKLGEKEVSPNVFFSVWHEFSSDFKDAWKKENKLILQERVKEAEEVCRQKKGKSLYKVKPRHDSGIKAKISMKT

B1: AlexaFluor488-labeled WH2 cluster, KCK-WH2(C459S) (Drosophila Spir residues 366-482) (domain or fragment)
chain: KCKWARFWVQVIDELRRGVRLKKSNHERTPIEYELTPYEILMGDIRAKKYQLRKVMVNGDIPPRVKKDAHAMILEFIRSRPPLKKASDRQLGPPRMSEPSPREQLMESIRKGKELKQITP
modifications: AlexaFluor488-maleimide on the cysteine of the N-terminal Lys-Cys-Lys (~100% labeled)
As for B1, the Kd in [1] worked out at 2400 ± 900 nM.

B2: AlexaFluor488-labeled Spir-1–KIND (human Spir-1 residues 2-271) (domain or fragment)
chain: AQAAGPAGGGEPRTEAVGGEGPREPGAAGGAAGGSRDALSLEEILRLYNQPINEEQAWAVCYQCCGSLRAAARRRQPRHRVRSAAQIRVWRDGAVTLAPAADDAGEPPPVAGKLGYSQCMETEVIESLGIIIYKALDYGLKENEERELSPPLEQLIDHMANTVEADGSNDEGYEAAEEGLGDEDEKRKISAIRSYRDVMKLCAAHLPTESDAPNHYQAVCRALFAETMELHTFLTKIKSAKENLKKIQEMEKSDESSTDLEELKNADWAR
B2 gave a Kd in series [2] of 300 ± 60 nM.

B3: Spir-1–KIND (human Spir-1 residues 2-271), unlabeled (domain or fragment)
chain: B2 chain
The molecule B3 showed a Ki in series [3] of 190 ± 40 nM.

B4: KIND (Drosophila Spir residues 1-327), unlabeled (domain or fragment)
chain: MTEHQAEEQADTPPTKVKATPTPTPSGKFKDAKEDAFLSTSPDSANGDAQHKLPADQLAMSSSAHPQQAGQARPLILQAFHRCSSPEQCVTLHDILDSFKAPLSEDQAWALIHQFAGLYHQVAVQAHTCAADYEAALPTGFELHFHRDGSVHFSGPDQLTPKEQLQQEQIPLPPQHDVIVDQPDHSASSSGDSSVINRAFDNSNHHHHHQHHHPPLVVSHRKIISELAEIVYTALDYNLPEDEECQVSQELENLFNFMTADETDDDCIDEGIDEGDKRWDDESEEERNDTKELEHIIETCRNHIKTTLPENHYRAVCRALVTETIEL
B4 came in with a Kd in series [4] of 5 ± 3 nM. The same molecule gave a Ki in series [5] of 5 ± 1 nM.

B5: AlexaFluor488-labeled KIND (Drosophila Spir residues 1-327) (domain or fragment)
chain: B4 chain
With B5, the Kd in series [6] amounted to 1 ± 2 nM; in series [7] it was 9 ± 6 nM.

B6: Capu-FH1FH2 (Drosophila Capu residues 467-1,058) (domain or fragment)
chain: T1 sequence
For the molecule B6, the Kd came to 7 nM in series [8] and 6 nM in series [9].

B7: AlexaFluor488-labeled Capu-FH1FH2 with C-terminal Lys-Cys-Lys (domain or fragment)
chain: VSDNESAKEDGEKPHAVAPPPPPPPPPLHAFVAPPPPPPPPPPPPPPLANYGAPPPPPPPPPGSGSAPPPPPPAPIEGGGGIPPPPPPMSASPSKTTISPAPLPDPAEGNWFHRTNTMRKSAVNPPKPMRPLYWTRIVTSAPPAPRPPSVANSTDSTENSGSSPDEPPAANGADAPPTAPPATKEIWTEIEETPLDNIDEFTELFSRQAIAPVSKPKELKVKRAKSIKVLDPERSRNVGIIWRSLHVPSSEIEHAIYHIDTSVVSLEALQHMSNIQATEDELQRIKEAAGGDIPLDHPEQFLLDISLISMASERISCIVFQAEFEESVTLLFRKLETVSQLSQQLIESEDLKLVFSIILTLGNYMNGGNRQRGQADGFNLDILGKLKDVKSKESHTTLLHFIVRTYIAQRRKEGVHPLEIRLPIPEPADVERAAQMDFEEVQQQIFDLNKKFLGCKRTTAKVLAASRPEIMEPFKSKMEEFVEGADKSMAKLHQSLDECRDLFLETMRFYHFSPKACTLTLAQCTPDQFFEYWTNFTNDFKDIWKKEITSLLNELMKKSKQAQIESRRNVSTKVEKSGRISLKERMLMRRSKKCK
modifications: AlexaFluor488-maleimide on the cysteine of the C-terminal Lys-Cys-Lys (~100% labeled)
As to B7, the “stoichiometry N” value in [10] came to 2.

B8: NTSpir (Drosophila Spir residues 1-520) (domain or fragment)
chain: MTEHQAEEQADTPPTKVKATPTPTPSGKFKDAKEDAFLSTSPDSANGDAQHKLPADQLAMSSSAHPQQAGQARPLILQAFHRCSSPEQCVTLHDILDSFKAPLSEDQAWALIHQFAGLYHQVAVQAHTCAADYEAALPTGFELHFHRDGSVHFSGPDQLTPKEQLQQEQIPLPPQHDVIVDQPDHSASSSGDSSVINRAFDNSNHHHHHQHHHPPLVVSHRKIISELAEIVYTALDYNLPEDEECQVSQELENLFNFMTADETDDDCIDEGIDEGDKRWDDESEEERNDTKELEHIIETCRNHIKTTLPENHYRAVCRALVTETIELRVFLQQVLNNEAGAEKLIKASESSATTQQELAKLGFNDWARFWVQVIDELRRGVRLKKSNHERTPIEYELTPYEILMGDIRAKKYQLRKVMVNGDIPPRVKKDAHAMILEFIRSRPPLKKASDRQLGPPRMCEPSPREQLMESIRKGKELKQITPPEAPTLRERVLPSANSTLSRSRQRLIKVDFSKFQDDDL
On to B8, for which the binding result in series [11] is reported as “binds”.
